Data taken from patent publication US20090155833A1 (TEIJIN PHARMA, published 2009).

Target: T1, mouse GPR12 (mouse, UniProt P35412 1-334)
T1 sequence: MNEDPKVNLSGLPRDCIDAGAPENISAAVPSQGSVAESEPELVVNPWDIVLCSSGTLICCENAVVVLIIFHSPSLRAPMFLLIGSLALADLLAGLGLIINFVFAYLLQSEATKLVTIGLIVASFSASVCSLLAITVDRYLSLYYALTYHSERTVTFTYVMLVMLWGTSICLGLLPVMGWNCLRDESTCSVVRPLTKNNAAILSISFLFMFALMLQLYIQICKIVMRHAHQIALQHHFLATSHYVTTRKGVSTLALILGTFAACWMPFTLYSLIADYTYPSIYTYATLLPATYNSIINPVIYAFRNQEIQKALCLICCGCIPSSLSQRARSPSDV
Assay: cell-based or functional assay

- intracellular cAMP level (Fold against the (-) group), CHO-K1-GPR12 cells, 10^-9 M peptide with 10^-5 M Forskolin: ~5 fold
Binder: PDTGLYYDEYLKQVIDVLETDKHFREKLQK [Nesfatin-1M30]
